Assay [1] concerns the target T1, Ebola virus GP with a C-terminal polyhistidine tag (Sino Biologicals, Catalog #40442-V08B1) (Ebola virus, UniProt P87666 33-650).
T1 construct: also called EbolaGP.his; Ebola virus GP.his
In words: SPR 37C, mAb captured.

The target in assay [2] is T1, Ebola virus GP with a C-terminal …. In words: SPR 37C, mAb captured, pH chase.
Assay [3] has as its target T2, hCNTFR.mmh (ciliary neurotrophic factor receptor.mmh) (human (printed as hCNTFR), UniProt P26992 23-342).
T2 construct: also called negative control protein; not shown: mmh (myc-myc-hexahistidine) tag
T2 sequence: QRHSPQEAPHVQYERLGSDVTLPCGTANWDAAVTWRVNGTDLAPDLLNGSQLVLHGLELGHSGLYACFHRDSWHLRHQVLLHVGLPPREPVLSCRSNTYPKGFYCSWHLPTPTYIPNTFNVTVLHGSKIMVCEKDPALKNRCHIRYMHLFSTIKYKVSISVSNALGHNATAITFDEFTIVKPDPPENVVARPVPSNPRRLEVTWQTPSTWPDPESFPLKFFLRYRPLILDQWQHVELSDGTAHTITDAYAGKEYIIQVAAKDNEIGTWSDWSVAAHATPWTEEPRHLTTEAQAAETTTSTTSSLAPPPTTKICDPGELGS
In words: BLI, mAb captured, 25C. Background: BLI is a label-free optical method that tracks binding on a fibre tip over time.

Assay [4] addresses T3, Ebola virus GP, Sudan strain, on VLPs (Ebola virus, Sudan strain, UniProt Q7T9D9 33-676).
T3 construct: also called Sudan NC_006432
T3 sequence: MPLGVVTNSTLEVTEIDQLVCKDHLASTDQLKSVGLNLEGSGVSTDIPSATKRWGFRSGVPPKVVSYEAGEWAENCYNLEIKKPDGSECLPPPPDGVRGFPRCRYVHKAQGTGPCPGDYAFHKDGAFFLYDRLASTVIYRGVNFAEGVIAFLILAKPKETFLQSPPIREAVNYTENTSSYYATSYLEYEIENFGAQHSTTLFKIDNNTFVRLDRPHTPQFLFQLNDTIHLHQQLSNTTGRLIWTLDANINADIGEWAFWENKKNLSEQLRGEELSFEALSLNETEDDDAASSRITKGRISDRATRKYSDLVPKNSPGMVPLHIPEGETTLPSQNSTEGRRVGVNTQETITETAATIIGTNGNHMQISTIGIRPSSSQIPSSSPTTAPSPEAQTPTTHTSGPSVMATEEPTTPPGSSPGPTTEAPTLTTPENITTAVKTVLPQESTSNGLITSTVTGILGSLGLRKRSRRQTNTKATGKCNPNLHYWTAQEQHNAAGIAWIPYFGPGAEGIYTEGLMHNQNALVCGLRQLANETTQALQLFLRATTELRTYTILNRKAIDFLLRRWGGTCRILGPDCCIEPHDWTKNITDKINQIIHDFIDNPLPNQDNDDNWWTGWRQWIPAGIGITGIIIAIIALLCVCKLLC
In words: MSD, VLPs coated.

For assay [5], the target named is T4, Ebola virus GP, Cote d'Ivoire strain, on VLPs (Ebola virus, Cote d'Ivoire strain, UniProt Q66810 33-676).
T4 construct: also called Cote d'Ivoire FJ217162; Ivory Coast
T4 sequence: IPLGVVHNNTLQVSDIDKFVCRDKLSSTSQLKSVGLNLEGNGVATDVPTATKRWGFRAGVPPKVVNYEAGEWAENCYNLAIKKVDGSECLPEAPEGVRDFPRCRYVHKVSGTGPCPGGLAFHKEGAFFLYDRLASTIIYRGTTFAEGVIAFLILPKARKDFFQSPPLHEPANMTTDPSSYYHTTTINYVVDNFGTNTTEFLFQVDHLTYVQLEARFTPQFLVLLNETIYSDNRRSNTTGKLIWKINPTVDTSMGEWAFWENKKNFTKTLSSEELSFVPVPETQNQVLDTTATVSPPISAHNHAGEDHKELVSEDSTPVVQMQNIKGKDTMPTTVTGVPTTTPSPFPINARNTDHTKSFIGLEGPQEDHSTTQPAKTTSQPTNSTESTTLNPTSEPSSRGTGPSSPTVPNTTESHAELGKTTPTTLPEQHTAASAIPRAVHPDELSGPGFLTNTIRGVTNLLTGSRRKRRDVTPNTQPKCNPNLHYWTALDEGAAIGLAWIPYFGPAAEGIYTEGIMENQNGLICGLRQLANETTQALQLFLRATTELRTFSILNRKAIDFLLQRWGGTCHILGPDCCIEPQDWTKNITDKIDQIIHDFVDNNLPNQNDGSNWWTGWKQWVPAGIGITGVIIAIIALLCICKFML
In words: MSD, VLPs coated.

Assay [6] deals with T1, Ebola virus GP with a C-terminal …. In words: SPR 25C, mAb captured.
For assay [7], the target named is Ebola virus GP, Zaire 2014 strain, on VLPs (pseudoparticles) (Ebola virus, Zaire.2014 strain). In words: cell-based or functional assay.

B1: H1H17193P (antibody, V domains shown)
VH: QVQLVESGGGVVQPGRSLRLSCAASGFTFSSYGIHWVRQAPGKWLEWVAFIWFDGSNKYYADSVKGRFTISRDDSKNTLYLQMNSLRAEDTAVYYCARDGEIFGVLISSDAFDIWGQGTMVTVSS
VL: DIQMTQSPSSLSASVGDRVTITCRASRGIRNDLGWFQQKPGKAPKRLIYVASNLQSGVPSRFSGSGSGTEFTLTISSLQPEDFATYYCLQHNSYPITFGQGTRLEIK
For orientation: Kd means a measure of binding affinity in units of concentration. By koff is commonly meant the rate constant with which the complex falls apart. By kon is commonly meant a measure of how fast the partners come together. Higher therefore signals faster complex formation. What is called t½ is how long it takes for the measured level to halve. A higher t½ goes with slow loss. Regarding B1, in assay [1], the Kd is 31.8 nM, the koff came to 0.000503 s⁻¹, the kon worked out at 15800 M⁻¹ s⁻¹ and the t½ was found to be 22.9 min. For the same molecule, in assay [2], the “t½ ratio pH 7.4/pH 5.0” value was found to be 0.8 and the “t½ ratio pH 7.4/pH 6.0” value was 1.1. For the same molecule, the binding result in assay [3] is recorded as “no binding (tested: below 0.10 nm at 300 nM)”. Also, the binding result in assay [4] is listed as “no binding”. Also, in assay [5], the binding result is reported as “no binding”. In assay [6], this molecule displayed a Kd of 23.6 nM, an off-rate constant (koff) of 0.000108 s⁻¹, an association rate constant (kon) of 4580 M⁻¹ s⁻¹ and a t½ of 107 min.

B2: H2aM17358N (antibody, V domains shown)
VH: EVQLVESGGGLVQPGGSLRLSCAASGFTFSTYEMNWVRQAPGKGLEWVSYSSSSGRTIYYADSVKGRFTISRDNAKNSLFLQMNSLRAEDTAVYYCARPSSIETLLRNQYHYGVDVWGQGTTVTVSS
VL: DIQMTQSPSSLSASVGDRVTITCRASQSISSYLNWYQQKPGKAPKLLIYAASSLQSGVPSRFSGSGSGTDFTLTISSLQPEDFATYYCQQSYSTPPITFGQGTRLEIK
notes: also called HCAF12C05-14
In assay [1], B2 displayed a Kd of 52.8 nM, a koff of 0.000567 s⁻¹, an on-rate (kon) of 10700 M⁻¹ s⁻¹ and a t½ of 20.4 min. In addition, in assay [2], the “t½ ratio pH 7.4/pH 5.0” value came to 0.4 and the “t½ ratio pH 7.4/pH 6.0” value was determined as 0.7. The “Zaire 2014 VLP neutralization IC50” value in assay [7] came to 4.68 nM. In assay [6], this molecule yielded a Kd of 623 nM, a koff of 0.000201 s⁻¹, a kon of 322 M⁻¹ s⁻¹ and a t½ of 57.5 min.

B3: H2aM17360N (antibody, V domains shown)
VH: EVQLVESGGGLVQPGGSLRLSCAASGFTFSSYEMNWVRQAPGKGLEWVSYISSSGSTKYYADSVKGRFTISRDNAKNSLYLQMNSLRAEDTAVYYCARPSSIPALLRNQYHYGMDVWGQGTTVTVSS
VL: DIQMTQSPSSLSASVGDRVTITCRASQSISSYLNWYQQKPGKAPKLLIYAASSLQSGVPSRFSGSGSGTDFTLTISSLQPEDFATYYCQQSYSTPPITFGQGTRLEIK
notes: also called HCAF12G09-07
For the molecule B3, in assay [1], the Kd was 13.9 nM, the koff stood at 0.000337 s⁻¹, the on-rate (kon) was 24300 M⁻¹ s⁻¹ and the t½ is 34.3 min. Moreover, in assay [2], the “t½ ratio pH 7.4/pH 5.0” value worked out at 0.5 and the “t½ ratio pH 7.4/pH 6.0” value is 0.2. The “Zaire 2014 VLP neutralization IC50” value in assay [7] turned out to be 3.75 nM. Further, in assay [6], the equilibrium dissociation constant (Kd) was determined as 0.463 nM, the koff came out at 1.06e-05 s⁻¹, the on-rate constant (kon) came to 23000 M⁻¹ s⁻¹ and the t½ turned out to be 1090 min.

B4: H1H17196P (antibody, V domains shown)
VH: EVQLVESGGGLVQPGGSLRLSCAASGFTFRSYDMHWVRQGSGKGLEWVSAIGTAGDTYYLGSVKGRFTISRENAKNSLYLQMNSLRAGDTAVYYCARAWFGDVFLDYWGQGTLVTVSS
VL: EIVMTQSPATLSVSPGERATLSCRASQSVSSNLAWYQQKPGQAPRLLIYGASTRATGIPARFSGSGSGTEFTLTISSLQSEDFAGYYCQQYNNRLTFGGGTKVEIK
In the case of B4, in assay [1], the affinity, expressed as Kd, was 0.317 nM; the koff is at most 1e-05 s⁻¹; the kon worked out at 31600 M⁻¹ s⁻¹; the t½ is at least 1160 min. Further, in assay [2], the “t½ ratio pH 7.4/pH 5.0” value is 1 and the “t½ ratio pH 7.4/pH 6.0” value came to 1. In addition, the binding result in assay [3] was “no binding (tested: below 0.10 nm at 300 nM)”. Besides, in assay [4], the binding result is given as “no binding”. Besides, in assay [5], the binding result is recorded as “no binding”. In assay [6], the dissociation constant (Kd) was at most 0.391 nM, the dissociation rate constant (koff) is at most 1e-05 s⁻¹, the on-rate constant (kon) worked out at 25600 M⁻¹ s⁻¹ and the t½ is at least 1160 min.

B5: H1H17199P (antibody, V domains shown)
VH: EVQLVESGGGLVQPGGSLRLSCAASGFTFSDHYMVWVRQAPGKGLEWVGRTRNKANSYSTEYAASVKGRFTISRDDSKKSLYLQMNSLKTEDTAVYYCARGGETLWFGESNYGMDVWGQGTTVTVSS
VL: EIVLTQSPDTLSLSPGERATLSCRASQSVSSTYLAWYQQKPGQAPSLLIYGASSRATGIPDRFSGSGSGTDFTLTISRLEPEDFAVYYCQQYGRSPLTFGGGTKVEIK
In assay [1], B5 registered a Kd of 42.2 nM, a koff of 0.00128 s⁻¹, an on-rate constant (kon) of 30400 M⁻¹ s⁻¹ and a t½ of 9 min. In assay [2], the “t½ ratio pH 7.4/pH 5.0” value worked out at 0.1 and the “t½ ratio pH 7.4/pH 6.0” value was determined as 0.4. Also, the binding result in assay [3] is given as “no binding (tested: below 0.10 nm at 300 nM)”. Also, the binding result in assay [4] is “no binding”. The binding result in assay [5] is given as “no binding”. In assay [6], this molecule gave a Kd of 18.9 nM, a dissociation rate constant (koff) of 0.000236 s⁻¹, a kon of 12500 M⁻¹ s⁻¹ and a t½ of 49 min.

B6: H1M17354N (antibody, V domains shown)
VH: QVQLVQSGAEVKKPGASVKVSCKASGYTFTSYYMHWVRQAPGQGLEWLGIINPSGGSTSYAQKFQGRVTMTRDTSTSTVYMELSSLRSEDTAVYYCARETGEAGEVFNYWGQGTQVTVSS
VL: DIQMTQSPSSLSASVGDRVTITCRASQIISRYLNWYQHKPGKAPKVLIYAASTLQSGVPSRFSGSGSGTDFTLTISSLQPEDFATYYCQQSYSTPPITFGQGTRLEIK
notes: also called HCAF05C08-22
In assay [1], B6 gave a Kd of 113 nM, a dissociation rate constant (koff) of 0.00573 s⁻¹, a kon of 50800 M⁻¹ s⁻¹ and a t½ of 2 min. Moreover, in assay [2], the “t½ ratio pH 7.4/pH 5.0” value is 1.3 and the “t½ ratio pH 7.4/pH 6.0” value stood at 1.3. Also, the binding result in assay [3] is listed as “no binding (tested: below 0.10 nm at 300 nM)”. The binding result in assay [4] is “no binding”. In addition, the binding result in assay [5] is “no binding”. In assay [6], this molecule came in with a Kd of 63.9 nM, an off-rate constant (koff) of 0.00316 s⁻¹, a kon of 49400 M⁻¹ s⁻¹ and a t½ of 3.7 min.

Values taken from patent publication US20160215040A1 (Regeneron, published 2016).
